Results from paper PMC7921601.

Assays:
[1] = target: AF488-αBc_(C176) (human alphaB-crystallin with an additional C-terminal cysteine, labelled with Alexa Fluor 488) (human); assay: single-molecule TIRF with photobleaching step analysis; αBcC176 in the absence of CLIC1C24, with or without cross-linking, diluted for TIRF microscopy; size of the oligomers
[2] = target: AF647-CLIC1C24 (CLIC1 W23F, C59A, C89A, C178A, C191A, C223A, labelled with Alexa Fluor 647 at C24) (UniProt O00299); assay: two-colour single-molecule TIRF colocalisation with photobleaching step analysis; AF647-CLIC1C24 (1 μM) with AF488-αBcC176 (2 μM) at 37 °C in 50 mM phosphate buffer pH 7.4; early timepoints (0.25-0.5 h); diluted 1:1000, CLIC1 held by an anti-6X His-tag antibody; conditions: scale: αBc subunits per CLIC1 subunit
[3] = target: AF647-CLIC1C24 (CLIC1 W23F, C59A, C89A, C178A, C191A, C223A, labelled with Alexa Fluor 647 at C24) (UniProt O00299); assay: two-colour single-molecule TIRF colocalisation with photobleaching step analysis; AF647-CLIC1C24 (1 μM) with AF488-αBcC176 (2 μM) at 37 °C in 50 mM phosphate buffer pH 7.4; later timepoints (1-10 h); diluted 1:1000, CLIC1 held by an anti-6X His-tag antibody; with or without cross-linking before dilution
[4] = target: AF555-CLIC1C24 (CLIC1 W23F, C59A, C89A, C178A, C191A, C223A, labelled with Alexa Fluor 555 at C24) (UniProt O00299); assay: FRET or BRET; single-molecule FRET by TIRF microscopy; AF555-CLIC1C24 (1 μM) with AF647-αBcC176 (2 μM) for 20 h at 37 °C in 50 mM phosphate buffer pH 7.4, diluted 1:1000, CLIC1 held on the coverslip by an anti-6X His-tag antibody; imaged at about 20 °C

stoichiometry N [1] [subunits] | stoichiometry N [2] | percent of CLIC1C24 colocalized with αBcC176 (maximum, after 4 h) [3] [%] | FRET efficiency (E) [4] | Substance
< 10 | 1 | 50 | – | AF488-αBc_(C176) (human alphaB-crystallin with an additional C-terminal cysteine, labelled with Alexa Fluor 488) (natural protein)
– | – | – | 0.8 to 1 | AF647-αBc_(C176) (human alphaB-crystallin with an additional C-terminal cysteine, labelled with Alexa Fluor 647) (natural protein)
